Test results reported in patent US20240392013A1, “IL1RAP ANTIBODIES AND USES THEREOF” (STELEXIS THERAPEUTICS, LLC, priority 2021, published 2024).

Experiments:
[1] = test system: IL33-induced downstream signaling (phospho-ERK, p38, NFκB) in AML patient samples; assay: IL33 signaling in AML patient samples, Western blot; type: cell-based, human; details: antibody 20 μg/ml, IL33 100 ng/ml
Protocol: (§1) AML patient samples or cancer cells (AML, chronic myelogenous leukemia (CML), pancreatic, head and neck squamous cell carcinoma (HNSCC), bladder, non-small-cell lung carcinoma (NSCLC), colorectal and triple-negative breast cancer (TNBC)) were seeded in 6-well plates (5×10^5 cells/well) and incubated overnight at 37° C./5% CO2 in humified incubator. In experiments conducted in cancer cell lines, cells were washed 2× with PBS and serum-starved for 3 hours. Following, cells were treated with IL1RAP antibodies at concentration of 20 μg/ml and incubated for 1 h at 37° C./5% CO2 in humidified incubator. After 1 h, cells were treated with IL1β (Invivogen, cat: rcyec-hil1b), IL33 (Adipogen, cat: AG-40B-0160-C010) or IL36 cytokines (R@D, cat: 6836IL) at 100 ng/ml and incubated for 15 more minutes. Cells were harvested on ice after 1× wash with cold PBS and were centrifuged for 5 minutes at 5000 rpm at 4° C. Cells were then lysed with NP-40 buffer for 5 minutes on ice and centrifuged for 15 minutes at 15000 rpm at 4° C. Supernatants were collected and protein concentrations were determined by BCA (Thermofisher, Cat #PI23225). […] After 3× washes, ECL was applied (Thermofisher, Cat #32106) and proteins were detected after exposure to autoradioraphic films (Worldwide medical products, Cat #41101001) and protein intensity was quantitated using ImageJ software.

[2] = test system: AML patient samples; assay: Clonogenic capacity of AML patient samples; type: cell-based, human; details: 333 nM, two weeks
Protocol: AML patient samples or healthy control samples (4000 cells) were washed and resuspended in 30 μl Iscove's Modified Dulbecco's Medium (IMDM) media supplemented with 2% FBS. Cells […] were mixed with 3 ml methylcellulose (MthoCult H4034 Optimum) supplemented with pen/strep or primocin (100 μg/ml) and IL1RAP antibodies (333 nM) and 1 ml were seeded in 35 mm dishes in duplicates. The dishes were incubated at 37° C./5% CO2 in humidified incubator for 14-16 days. Colonies were counted using inverted microscope.

[3] = test system: IL1-induced downstream signaling (phospho-ERK, NFκB) in AML patient samples; assay: IL1 signaling in AML patient samples, Western blot; type: cell-based, human; details: antibody 20 μg/ml, IL1β 100 ng/ml
Protocol: as §1

[4] = test system: AML cells (THP-1); assay: Proliferation of AML cells (THP-1), Cell-Titer Glo; type: cell-based, human; details: 66 nM, 4 days
Protocol: (§2) AML patient samples or cancer cells (AML and CML) were plated at density of 3×10^3 cells/well in two 96-well plates and incubated overnight at 37° C./5% CO2 in humidified incubator. The next day (Day 1) cells in one of the plates were treated with IL1RAP antibody at 10-150 μg/ml at a total volume of 100 μl. Plates were kept at 37° C./5% CO2 in humified for 3-6 days. Cells treated with vehicle or IgG served as controls and every treatment was conducted in triplicates. The second plate was treated on Day 1 with media and cell proliferation was measured on the same day by CellTiter-Glo (Promega, Cat #G7572). In more details, wells were mixed with equal volume (100 μl) of CellTiter-Glo and agitated for 2 minutes followed by 10 minutes incubation at room temperature in the dark. Luminescence signal was measured in Cytation™ (Biotek) plate reader. After 3-6 days, cell proliferation in the […] plates was measured separately in the same way.

[5] = test system: SK-MEL-5 cells; assay: Jurkat-Lucia NFAT-CD16 ADCC reporter assay against SK-MEL-5 cells; type: cell-based; details: SK-MEL-5 target cells
Source text: (§3) Methods: ADCC activity is mediated through binding of NK cell's CD16 receptors to the Fc region of antibodies. A Jurkat-Lucia NFAT-CD16 ADCC Reporter cell assay (Invivogen, Cat #jktl-nfat-cd16; https://www.invivogen.com/jurkat-lucia-nfat-adcc-adcp-cells) was used to analyze IL1RAP mAb STLX2012 for ADCC activity. Briefly, the Jurkat cell line was engineered to express the cell surface Fc receptor CD16A (FcγRIIIA) and the Lucia luciferase reporter gene. ADCC is triggered by CD16A cross-linking upon antigen-bound antibody binding at the surface of immune effector cells. Cells are maintained in the presence of zeocin (100 μg/ml) and blasticidin (10 μg/ml).
The STLX2012-DLE antibody was then analyzed for ADCC activity using the Jurkat-Lucia NFAT-CD16 ADCC Reporter cell assay, described in Example 11 above.

[6] = test system: CML cells (K562); assay: Proliferation of CML cells (K562), Cell-Titer Glo; type: cell-based, human; details: 333 nM, 3 days
Protocol: as §2

[7] = test system: AML patient samples; assay: Proliferation of AML patient samples, Cell-Titer Glo; type: cell-based, human; details: 1 μM, 7 days
[8] = test system: IL36-induced downstream signaling (phospho-ERK, AKT, p38, NFκB) in HPAC, CAL33, 5637 cells; assay: IL36 signaling in solid tumor cancer cells, Western blot; type: cell-based; details: IL36γ, antibody 20 μg/ml
Protocol: as §1

[9] = test system: IL1-induced downstream signaling (phospho-NFκB) in K562 cells; assay: IL1 signaling in CML (K562) cells, Western blot; type: cell-based, human; details: antibody 20 μg/ml, IL1β 100 ng/ml
Protocol: as §1

[10] = test system: AML patient-derived leukemic cells; assay: Jurkat-Lucia NFAT-CD16 ADCC reporter assay against AML patient-derived leukemic cells; type: cell-based, human
Source text: as §3

B1: 74804_12A21B: anti-IL1RAP mAb; VH SEQ ID NO:6, VL SEQ ID NO:23, κ light chain (antibody, V domains shown)
VH: QVQLLQSGAEVKKPGSSVKVSCKASGGTFSIYAIDWVRQAPGQGLEWMGGIIPIFGTANSAQKFQGRVTITADKSTSTAYMELSSLRSEDTAVYYCARNGATSDAFDMWGQGTMVTVSS
VL: EIVLTQSPGTLSLSPGERATLSCRASLSVSSNYLAWFQQRPGQAPRLLIHGVSRRATGIPDRFSGSGSGTDFTLTISRLEPEDFAVYYCQQYGSSPLTFGGGTKVEIK
modifications: 74804_12A21B VH and 74804_29D13A VH; 74804_12A21B VL
With B1 the “Inhibition of IL33 signaling (phosphorylation of ERK, p38 and NFκB)” value [1] was “inhibited IL33 signaling in AML patient samples”, the “Inhibition of clonogenic capacity (colony formation)” value [2] was “inhibited the clonogenic capacity” and the “Inhibition of IL1 signaling (phosphorylation of ERK and NFκB)” value [3] was “inhibited IL1 signaling in AML patient samples”. The “Inhibition of cell proliferation” value [4] was “inhibited cell proliferation”, the “ADCC activity (reporter)” value [5] was “showed ADCC activity” and the “Inhibition of cell proliferation” value [6] was “inhibited cell proliferation”. For the same molecule, the “Inhibition of cell proliferation” value [7] was “inhibited cell proliferation”, the “Inhibition of IL36 signaling (phosphorylation of ERK, AKT, p38 and NFκB)” value [8] was “Inhibition of IL36 signaling in solid tumor cancer cells” and the “Inhibition of IL1 signaling (phosphorylation of NFκB)” value [9] was “inhibited IL1 signaling in these CML (K562) cells”. The “ADCC activity (reporter)” value [10] was “showed ADCC activity”.
